Data: the supplement of paper PMC11246515
± gives the standard deviation of the averaged measurements.

Assay: total protein half-life in vivo (active degradation + dilution); higher = more stable protein
[1] = E. coli NCM3722 delta-clpP delta-lon delta-hslV, growth: N-lim chemostat, doubling time 6 h
[2] = E. coli NCM3722 delta-clpP, growth: N-lim chemostat, doubling time 6 h
[3] = wild type E. coli NCM3722, growth: N-lim chemostat, doubling time 6 h
[4] = E. coli NCM3722 delta-hslV, growth: N-lim chemostat, doubling time 6 h
[5] = E. coli NCM3722 delta-lon, growth: N-lim chemostat, doubling time 6 h
[6] = E. coli NCM3722 delta-smpB, growth: N-lim chemostat, doubling time 6 h
[7] = wild type E. coli NCM3722, growth: C-lim chemostat, doubling time 3 h
[8] = wild type E. coli NCM3722, growth: C-lim chemostat, doubling time 6 h
[9] = wild type E. coli NCM3722, growth: C-lim chemostat, doubling time 12 h
[10] = wild type E. coli NCM3722, growth: N-lim chemostat, doubling time 12 h
[11] = wild type E. coli NCM3722, growth: P-lim chemostat, doubling time 6 h
[12] = wild type E. coli NCM3722, growth: P-lim chemostat, doubling time 12 h

MNEQNLKHVIALLLEDAKRLQQIEPNAGTEARILLAKQALKTCGAQAPGRTEFMNFMANTLTPLPCNGEKVSRVYHDTMVKALRIELDGLRRKIVMNEIVTN
total protein half-life in vivo [1]: 4.2 h | total protein half-life in vivo [2]: 4.79 h | total protein half-life in vivo [3]: 4.61 h

MNEQYSALRSNVSMLGKVLGETIKDALGEHILERVETIRKLSKSSRAGNDANRQELLTTLQNLSNDELLPVARAFSQFLNLANTAEQYHSISPKGEAASNPEVIARTLRKLKNQPELSEDTIKKAVESLSLELVLTAHPTEITRRTLIHKMVEVNACLKQLDNKDIADYEHNQLMRRLRQLIAQSWHTDEIRKLRPSPVDEAKWGFAVVENSLWQGVPNYLRELNEQLEENLGYKLPVEFVPVRFTSWMGGDRDGNPNVTADITRHVLLLSRWKATDLFLKDIQVLVSELSMVEATPELLALVGEEGAAEPYRYLMKNLRSRLMATQAWLEARLKGEELPKPEGLLTQNEELWEPLYACYQSLQACGMGIIANGDLLDTLRRVKCFGVPLVRIDIRQESTRHTEALGELTRYLGIGDYESWSEADKQAFLIRELNSKRPLLPRNWQPSAETREVLDTCQVIAEAPQGSIAAYVISMAKTPSDVLAVHLLLKEAGIGFAMPVAPLFETLDDLNNANDVMTQLLNIDWYRGLIQGKQMVMIGYSDSAKDAGVMAASWAQYQAQDALIKTCEKAGIELTLFHGRGGSIGRGGAPAHAALLSQPPGSLKGGLRVTEQGEMIRFKYGLPEITVSSLSLYTGAILEANLLPPPEPKESWRRIMDELSVISCDVYRGYVRENKDFVPYFRSATPEQELGKLPLGSRPAKRRPTGGVESLRAIPWIFAWTQNRLMLPAWLGAGTALQKVVEDGKQSELEAMCRDWPFFSTRLGMLEMVFAKADLWLAEYYDQRLVDKALWPLGKELRNLQEEDIKVVLAIANDSHLMADLPWIAESIQLRNIYTDPLNVLQAELLHRSRQAEKEGQEPDPRVEQALMVTIAGIAAGMRNTG
total protein half-life in vivo [1]: 5.93 ± 0.19 h | total protein half-life in vivo [2]: 5.73 ± 0.32 h | total protein half-life in vivo [4]: 5.54 ± 0.18 h | total protein half-life in vivo [5]: 5.364 ± 0.041 h | total protein half-life in vivo [6]: 5.04 ± 0.057 h | total protein half-life in vivo [7]: 2.97 ± 0.16 h | total protein half-life in vivo [8]: 5.78 ± 0.22 h | total protein half-life in vivo [9]: 10.98 ± 0.089 h | total protein half-life in vivo [3]: 5.22 ± 0.11 h | total protein half-life in vivo [10]: 10.6 ± 0.79 h | total protein half-life in vivo [11]: 5.97 ± 0.078 h | total protein half-life in vivo [12]: 11.8 ± 0.8 h

MNFEGKIALVTGASRGIGRAIAETLAARGAKVIGTATSENGAQAISDYLGANGKGLMLNVTDPASIESVLEKIRAEFGEVDILVNNAGITRDNLLMRMKDEEWNDIIETNLSSVFRLSKAVMRAMMKKRHGRIITIGSVVGTMGNGGQANYAAAKAGLIGFSKSLAREVASRGITVNVVAPGFIETDMTRALSDDQRAGILAQVPAGRLGGAQEIANAVAFLASDEAAYITGETLHVNGGMYMV [P0AEK2]
total protein half-life in vivo [1]: 5.03 ± 0.11 h | total protein half-life in vivo [2]: 4.85 ± 0.11 h | total protein half-life in vivo [4]: 4.8 ± 0.2 h | total protein half-life in vivo [5]: 5.27 ± 0.39 h | total protein half-life in vivo [6]: 4.814 ± 0.012 h | total protein half-life in vivo [7]: 2.98 ± 0.11 h | total protein half-life in vivo [8]: 5.91 ± 0.17 h | total protein half-life in vivo [9]: 12.8 ± 3.6 h | total protein half-life in vivo [3]: 4.81 ± 0.28 h | total protein half-life in vivo [10]: 8.546 ± 0.024 h | total protein half-life in vivo [11]: 6.06 ± 0.38 h | total protein half-life in vivo [12]: 11.3 ± 0.73 h

MNFHHLAYWQDKALSLAIENRLFINGEYTAAAENETFETVDPVTQAPLAKIARGKSVDIDRAMSAARGVFERGDWSLSSPAKRKAVLNKLADLMEAHAEELALLETLDTGKPIRHSLRDDIPGAARAIRWYAEAIDKVYGEVATTSSHELAMIVREPVGVIAAIVPWNFPLLLTCWKLGPALAAGNSVILKPSEKSPLSAIRLAGLAKEAGLPDGVLNVVTGFGHEAGQALSRHNDIDAIAFTGSTRTGKQLLKDAGDSNMKRVWLEAGGKSANIVFADCPDLQQAASATAAGIFYNQGQVCIAGTRLLLEESIADEFLALLKQQAQNWQPGHPLDPATTMGTLIDCAHADSVHSFIREGESKGQLLLDGRNAGLAAAIGPTIFVDVDPNASLSREEIFGPVLVVTRFTSEEQALQLANDSQYGLGAAVWTRDLSRAHRMSRRLKAGSVFVNNYNDGDMTVPFGGYKQSGNGRDKSLHALEKFTELKTIWISLEA
total protein half-life in vivo [1]: 3.96 ± 0.66 h | total protein half-life in vivo [2]: > 8 h | total protein half-life in vivo [4]: 1.03 ± 0.13 h | total protein half-life in vivo [6]: 1.11 ± 0.082 h | total protein half-life in vivo [7]: 2.68 ± 0.027 h | total protein half-life in vivo [8]: 2.8 ± 0.14 h | total protein half-life in vivo [9]: 3.22 ± 0.67 h | total protein half-life in vivo [3]: 1.43 ± 0.29 h | total protein half-life in vivo [10]: 1.48 h | total protein half-life in vivo [11]: 4.1373 ± 0.0017 h | total protein half-life in vivo [12]: 6.22 ± 0.066 h

MNFRRLKYFVKIVDIGSLTQAAEVLHIAQPALSQQVATLEGELNQQLLIRTKRGVTPTDAGKILYTHARAILRQCEQAQLAVHNVGQALSGQVSIGFAPGTAASSITMPLLQAVRAEFPEIVIYLHENSGAVLNEKLINHQLDMAVIYEHSPVAGVSSQALLKEDLFLVGTQDCPGQSVDVNAIAQMNLFLPSDYSAIRLRVDEAFSLRRLTAKVIGEIESIATLTAAIASGMGVAVLPESAARSLCGAVNGWMSRITTPSMSLSLSLNLPARANLSPQAQAVKELLMSVISSPVMEKRQWQLVS
total protein half-life in vivo [1]: 6.26 ± 0.89 h | total protein half-life in vivo [2]: 2.6 ± 0.032 h | total protein half-life in vivo [4]: 0.485 ± 0.11 h | total protein half-life in vivo [5]: 0.469 h | total protein half-life in vivo [6]: 1.83 ± 0.15 h | total protein half-life in vivo [3]: 0.978 ± 0.3 h | total protein half-life in vivo [10]: 1.31 ± 0.14 h

MNHAPHLYFAWQQLVEKSQLMLRLATEEQWDELIASEMAYVNAVQEIAHLTEEVDPSTTMQEQLRPMLRLILDNESKVKQLLQIRMDELAKLVGQSSVQKSVLSAYGDQGGFVLAPQDNLF [P0ABY2]
total protein half-life in vivo [7]: 0.191 h

MNHSETITIECTINGMPFQLHAAPGTPLSELLREQGLLSVKQGCCVGECGACTVLVDGTAIDSCLYLAAWAEGKEIRTLEGEAKGGKLSHVQQAYAKSGAVQCGFCTPGLIMATTAMLAKPREKPLTITEIRRGLAGNLCRCTGYQMIVNTVLDCEKTK
total protein half-life in vivo [1]: 4.15 h | total protein half-life in vivo [4]: 1.29 h | total protein half-life in vivo [6]: 1.2 h | total protein half-life in vivo [7]: 1.46 ± 0.069 h | total protein half-life in vivo [8]: 2.29 ± 0.2 h | total protein half-life in vivo [9]: 3.5 ± 0.34 h | total protein half-life in vivo [12]: 3.76 h

MNIDTREITLEPADNARLLSLCGPFDDNIKQLERRLGIEINRRDNHFKLTGRPICVTAAADILRSLYVDTAPMRGQIQDIEPEQIHLAIKEARVLEQSAESVPEYGKAVNIKTKRGVIKPRTPNQAQYIANILDHDITFGVGPAGTGKTYLAVAAAVDALERQEIRRILLTRPAVEAGEKLGFLPGDLSQKVDPYLRPLYDALFEMLGFEKVEKLIERNVIEVAPLAYMRGRTLNDAFIILDESQNTTIEQMKMFLTRIGFNSKAVITGDVTQIDLPRNTKSGLRHAIEVLADVEEISFNFFHSEDVVRHPVVARIVNAYEAWEEAEQKRKAALAAERKREEQEQK [P0A9K3]
total protein half-life in vivo [1]: 5.2 ± 0.69 h | total protein half-life in vivo [2]: 4.25 ± 0.14 h | total protein half-life in vivo [4]: 2.95 ± 0.066 h | total protein half-life in vivo [5]: 4.1 ± 0.2 h | total protein half-life in vivo [6]: 3.167 ± 0.017 h | total protein half-life in vivo [7]: 2.77 ± 0.3 h | total protein half-life in vivo [8]: 4.809 ± 0.025 h | total protein half-life in vivo [9]: 7.67 ± 0.34 h | total protein half-life in vivo [3]: 3.15 ± 0.17 h | total protein half-life in vivo [10]: 4.373 ± 0.043 h | total protein half-life in vivo [11]: 4.37 ± 0.17 h | total protein half-life in vivo [12]: 7.78 ± 0.12 h
